{
  "source": "patent CN114591430A",
  "binders": {"B1": {"name": "BSA抗体B2 (antibody, V domains shown)", "VH": "VKLQESGGGLVKPGGSLKLSCAASGFTFSLYDESWVRQTPEKRLEWVAEIFLGVYRYVPESKVRFTMSRDNAKNTLYLQMSSLRSEDTAMYYCVRLCYWEPEVKKCWGQGTTVTVSS", "VL": "DIELTQSPLTLSVTIGQPASISCESDLSLKESLDWLLQRPGQSPKRLIYEDLNADCGVPDRFTGSGSGTDSTLKISRVEAEDLGVYYCEIKGTFRWSFGGGTKLEIK"}},
  "key": {"[1]": {"molecular_target": "牛血清白蛋白(BSA) (bovine) (UniProt P02769)", "sequence (P02769 25-607)": "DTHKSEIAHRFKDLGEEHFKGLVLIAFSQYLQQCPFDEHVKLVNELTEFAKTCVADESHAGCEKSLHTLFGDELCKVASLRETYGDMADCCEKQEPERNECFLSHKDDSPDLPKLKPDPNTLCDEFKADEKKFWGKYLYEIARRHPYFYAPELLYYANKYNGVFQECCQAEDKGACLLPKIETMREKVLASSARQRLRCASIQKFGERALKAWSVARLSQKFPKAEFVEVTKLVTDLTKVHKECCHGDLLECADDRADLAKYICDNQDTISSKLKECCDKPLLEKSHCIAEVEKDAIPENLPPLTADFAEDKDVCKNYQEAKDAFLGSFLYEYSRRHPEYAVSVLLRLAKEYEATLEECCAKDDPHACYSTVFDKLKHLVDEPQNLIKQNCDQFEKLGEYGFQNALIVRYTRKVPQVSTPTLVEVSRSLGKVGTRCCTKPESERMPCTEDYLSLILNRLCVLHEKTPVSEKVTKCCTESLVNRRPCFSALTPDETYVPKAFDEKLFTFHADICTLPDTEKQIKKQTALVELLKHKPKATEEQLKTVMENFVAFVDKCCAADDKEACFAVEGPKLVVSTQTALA", "test": "sandwich ELISA, coat B2 2 ug/ml, BSA 1 ng/ml, detection biotin-B3 0.2 ug/ml"}, "[2]": {"molecular_target": "牛血清白蛋白(BSA) (bovine) (UniProt P02769)", "test": "sandwich ELISA, coat B2 2 ug/ml, BSA 0.75 ng/ml, detection biotin-B6 0.2 ug/ml, mean of A and B"}, "[3]": {"molecular_target": "HEK293细胞裂解液", "test": "sandwich ELISA, coat B2, detection biotin-B6, lysate 250 ug/ml"}, "[4]": {"molecular_target": "Vero细胞裂解液", "test": "sandwich ELISA, coat B2, detection biotin-B6, lysate 250 ug/ml"}, "[5]": {"molecular_target": "CHO细胞裂解液", "test": "sandwich ELISA, coat B2, detection biotin-B6, lysate 250 ug/ml"}, "[6]": {"molecular_target": "牛血清白蛋白(BSA) (bovine) (UniProt P02769)", "test": "indirect ELISA, BSA coated at 1 ug/ml, purified antibody at dilution 8K, HRP goat anti-mouse IgG"}, "[7]": {"molecular_target": "牛血清白蛋白(BSA) (bovine) (UniProt P02769)", "test": "sandwich ELISA, coat B2 2 ug/ml, BSA 48 ng/ml, detection biotin-B6 0.2 ug/ml, mean of A and B"}, "[8]": {"molecular_target": "牛血清白蛋白(BSA) (bovine) (UniProt P02769)", "test": "indirect ELISA, BSA coated at 1 ug/ml, purified antibody at dilution 4K, HRP goat anti-mouse IgG"}, "[9]": {"molecular_target": "牛血清白蛋白(BSA) (bovine) (UniProt P02769)", "test": "indirect ELISA, BSA coated at 1 ug/ml, purified antibody at dilution 512K, HRP goat anti-mouse IgG"}, "[10]": {"molecular_target": "牛血清白蛋白(BSA) (bovine) (UniProt P02769)", "test": "sandwich ELISA, coat B2 2 ug/ml, BSA 0.75 ng/ml, detection biotin-B6 0.2 ug/ml"}, "[11]": {"molecular_target": "牛血清白蛋白(BSA) (bovine) (UniProt P02769)", "test": "indirect ELISA, BSA coated at 1 ug/ml, purified antibody at dilution 1K, HRP goat anti-mouse IgG"}, "[12]": {"molecular_target": "牛血清白蛋白(BSA) (bovine) (UniProt P02769)", "test": "ELISA, BSA coated at 1 ug/ml, biotin-labelled antibody at dilution 1024K, HRP-avidin"}, "[13]": {"molecular_target": "HEK293细胞裂解液", "test": "sandwich ELISA, coat B2, detection biotin-B6, lysate 1 mg/ml"}, "[14]": {"molecular_target": "Vero细胞裂解液", "test": "sandwich ELISA, coat B2, detection biotin-B6, lysate 1 mg/ml"}, "[15]": {"molecular_target": "CHO细胞裂解液", "test": "sandwich ELISA, coat B2, detection biotin-B6, lysate 1 mg/ml"}, "[16]": {"molecular_target": "牛血清白蛋白(BSA) (bovine) (UniProt P02769)", "test": "sandwich ELISA, coat B2 2 ug/ml, BSA 12 ng/ml, detection biotin-B6 0.2 ug/ml, mean of A and B"}, "[17]": {"molecular_target": "HEK293细胞裂解液", "test": "sandwich ELISA, coat B2, detection biotin-B6, lysate 125 ug/ml"}, "[18]": {"molecular_target": "Vero细胞裂解液", "test": "sandwich ELISA, coat B2, detection biotin-B6, lysate 125 ug/ml"}, "[19]": {"molecular_target": "CHO细胞裂解液", "test": "sandwich ELISA, coat B2, detection biotin-B6, lysate 125 ug/ml"}, "[20]": {"molecular_target": "牛血清白蛋白(BSA) (bovine) (UniProt P02769)", "test": "sandwich ELISA, coat B2 2 ug/ml, BSA 1.5 ng/ml, detection biotin-B6 0.2 ug/ml, mean of A and B"}, "[21]": {"molecular_target": "牛血清白蛋白(BSA) (bovine) (UniProt P02769)", "test": "sandwich ELISA, coat B2 2 ug/ml, BSA 3 ng/ml, detection biotin-B6 0.2 ug/ml, mean of A and B"}, "[22]": {"molecular_target": "牛血清白蛋白(BSA) (bovine) (UniProt P02769)", "test": "sandwich ELISA, coat B2 2 ug/ml, BSA 1 ng/ml, detection biotin-B6 0.2 ug/ml"}, "[23]": {"molecular_target": "牛血清白蛋白(BSA) (bovine) (UniProt P02769)", "test": "sandwich ELISA, coat B2 2 ug/ml, BSA 12 ng/ml, detection biotin-B6 0.2 ug/ml"}, "[24]": {"molecular_target": "牛血清白蛋白(BSA) (bovine) (UniProt P02769)", "test": "indirect ELISA, BSA coated at 1 ug/ml, purified antibody at dilution 32K, HRP goat anti-mouse IgG"}, "[25]": {"molecular_target": "牛血清白蛋白(BSA) (bovine) (UniProt P02769)", "test": "sandwich ELISA, coat B2 2 ug/ml, BSA 6 ng/ml, detection biotin-B6 0.2 ug/ml"}, "[26]": {"molecular_target": "牛血清白蛋白(BSA) (bovine) (UniProt P02769)", "test": "indirect ELISA, BSA coated at 1 ug/ml, purified antibody at dilution 64K, HRP goat anti-mouse IgG"}, "[27]": {"molecular_target": "牛血清白蛋白(BSA) (bovine) (UniProt P02769)", "test": "ELISA, BSA coated at 1 ug/ml, biotin-labelled antibody at dilution 8K, HRP-avidin"}, "[28]": {"molecular_target": "HEK293细胞裂解液", "test": "sandwich ELISA, coat B2, detection biotin-B6, lysate 7.81 ug/ml"}, "[29]": {"molecular_target": "Vero细胞裂解液", "test": "sandwich ELISA, coat B2, detection biotin-B6, lysate 7.81 ug/ml"}, "[30]": {"molecular_target": "CHO细胞裂解液", "test": "sandwich ELISA, coat B2, detection biotin-B6, lysate 7.81 ug/ml"}, "[31]": {"molecular_target": "牛血清白蛋白(BSA) (bovine) (UniProt P02769)", "test": "indirect ELISA, BSA coated at 1 ug/ml, purified antibody at dilution 16K, HRP goat anti-mouse IgG"}},
  "note": "Values joined by “and” are separate entries in the source; they are usually repeats but may differ in a detail not shown here. Equal entries are not always repeated.",
  "data": [
    {"binder": "B1", "values": [
      {"measurement": "OD450", "setting": "[1]", "value": "0.342 and 0.346"},
      {"measurement": "OD450 (平均值)", "setting": "[2]", "value": 0.303},
      {"measurement": "OD450", "setting": "[3]", "value": 0.134},
      {"measurement": "OD450", "setting": "[4]", "value": 0.14},
      {"measurement": "OD450", "setting": "[5]", "value": 0.134},
      {"measurement": "OD450", "setting": "[6]", "value": 0.728},
      {"measurement": "OD450 (平均值)", "setting": "[7]", "value": 2.21},
      {"measurement": "OD450", "setting": "[8]", "value": 0.9},
      {"measurement": "OD450", "setting": "[9]", "value": 0.137},
      {"measurement": "OD450", "setting": "[10]", "value": "0.31 and 0.296"},
      {"measurement": "OD450", "setting": "[11]", "value": 2.13},
      {"measurement": "OD450", "setting": "[12]", "value": 0.175},
      {"measurement": "OD450", "setting": "[13]", "value": 0.142},
      {"measurement": "OD450", "setting": "[14]", "value": 0.129},
      {"measurement": "OD450", "setting": "[15]", "value": 0.132},
      {"measurement": "OD450 (平均值)", "setting": "[16]", "value": 1},
      {"measurement": "OD450", "setting": "[17]", "value": 0.14},
      {"measurement": "OD450", "setting": "[18]", "value": 0.132},
      {"measurement": "OD450", "setting": "[19]", "value": 0.14},
      {"measurement": "OD450 (平均值)", "setting": "[20]", "value": 0.408},
      {"measurement": "OD450 (平均值)", "setting": "[21]", "value": 0.512},
      {"measurement": "OD450", "setting": "[22]", "value": "0.38 and 0.378"},
      {"measurement": "OD450", "setting": "[23]", "value": "1.01 and 1"},
      {"measurement": "OD450", "setting": "[24]", "value": 0.403},
      {"measurement": "OD450", "setting": "[25]", "value": "0.684 and 0.692"},
      {"measurement": "OD450", "setting": "[26]", "value": 0.335},
      {"measurement": "OD450", "setting": "[27]", "value": 1.81},
      {"measurement": "OD450", "setting": "[28]", "value": 0.132},
      {"measurement": "OD450", "setting": "[29]", "value": 0.138},
      {"measurement": "OD450", "setting": "[30]", "value": 0.136},
      {"measurement": "OD450", "setting": "[31]", "value": 0.537}
    ]}
  ]
}
